Reference: paper PMC3031242, “A novel neuron-enriched protein SDIM1 is down regulated in Alzheimer's brains and attenuates cell death induced by DNAJB4 over-expression in neuro-progenitor cells” (Molecular Neurodegeneration, 2011)

Biological target: the molecule itself
Assay: dimer-sized band on SDS-PAGE and Western blot; purified GST-SDIM1 (Coomassie and anti-SDIM1 blot, Figure 3A; anti-GST blot of the anti-GST immunoprecipitate, Figure 3D left panel lane 4)

B1: GST-SDIM1 fusion protein (domain or fragment, human, UniProt Q6ZPB5 27-146, looked up)
chain: AGPSPGARTTLGSPLSLWSIKTPSHIFCTRRAINLGFPSPPLVQLIFWSLNAGLDLYLCLISSCGFSQVFWPVEAFCSFSLSFFALALSHKFVICRLDQHIFSGFTKSLKNLPPCHRTDI
notes: first residue C27 mutated to A to increase solubility in E. coli; Cloned into pGEX-3X; GST itself is known to dimerise; also called recombinant GST-SDIM1; SDIM1-GST fusion protein; source: E. coli Rosetta cells, purified (glutathione column)
  binding result: binds
